Experimental data published in the DeepSol protein solubility set.

Assay: soluble on expression in E. coli; label from the status in PepcDB or PDB records

Row | Sequence | soluble on expression in E. coli
1 | MPTTQLHHHYVLCGWHVRSALTLPELPPWSATATPVDADVVIEEGEVPDRLDLHDPVESWLSVGRDGSVLLQVPQVVRIHVHAGRAMRVQRLNRHDESWRLFLLGSALGYLCLQRSLFPLHAACLRIGTQTVAFAGHSGAGKSTLAAALLKRGHGLLSDDLTVIRLDSAGAIMVLPAFPRLKLWRDTLESLQLPVTDAPPVRPGMEKFDLRPSAGFDAAPVRLDAVVVLGDASEPHLQRLSPQHALPLLHGYLARPQAAVRMGLHAATFAHAAAIARQVPVWRLRRPRRFDALDITVDLIEAHVGALEHHHHHH | not soluble
2 | MSSNLIRFVGNHDIASEGKFLFEILSQLRNFGVGRLVTKNEWTRKWPNNPSYMKILRAEPGMDRWLFEGKVYAEWVFRGKNLGVYEFSKDLNRSDWQLVHKHQEKSYTSSTTPMQDLVLPDSFPLPPLQVHLSQKSARKNGLDEKTVSRRAPLTLSVDPEFQHLKPFIKQEAPSTKSVSIYEEVDKNALLDLYGNELPVKVEAWNAGPAMFQPRFNATTMRVEEQPPK | not soluble
3 | MKISPSLMCMDLLKFKEQIEFIDSHADYFHIDIMDGHFVPNLTLSPFFVSQVKKLATKPLDCHLMVTRPQDYIAQLARAGADFITLHPETINGQAFRLIDEIRRHDMKVGLILNPETPVEAMKYYIHKADKITVMTVDPGFAGQPFIPEMLDKLAELKAWREREGLEYEIEVDGSCNQATYEKLMAAGADVFIVGTSGLFNHAENIDEAWRIMTAQILAAKSEVQPHAKTA | soluble
4 | MSLAADTLRIKQLQRCGDLFSDSQQRWCLCAEGLRANLPTVWLGGTRLSEADIERQGDRLTLKLARQAQRSAPLWLADGGRTSNPVWLTRQRSHVIAAGPDEVAKNMDGLTTYVDLVSLLIEEKYDGLGEARRIAGKYGAQVVGAIPPLNVYQLRLPVEDLVQRDAMVLRMGSEVSVDAVIVEESAPERGEEGNGRGTRAIDQADEWAANRFMDALYFYRRRIAASGLPVKPVRVGVIEREVDFDAPGFSHYRGGCEQGQTCLYARDGNRPASHGSHVAGILAAQGEGFLPGLGKHSPGFEVMVERNSDAGITANIAASVNLVEDGVRVLNWSWGIHRVGARDVNGDEVDSLVRSGLAMSGYEELLEEFFLWLRKEHPDVVVVNSAGNGASWSGTDEYRLPSSFITEQLLVVGGHQRSGKATAVEAHDHVRKRHSSNIDMRVDVSAAACIRPVSAEAAHCGTSYATPLVTATVATMLSINPALTPEQVRMLLRRSALTLGAEQDFEAMDAEDLTAPILPSERGGRLNDPDLGRSARLDMQRALDLAVQSLERVREGHHHHHH | not soluble
5 | MYMTGHSLGCYLAQIAAVEAYQKYPDFYNHVLRKVTTFSAPKVITSRTVWNAKNGFWDVGLESRKLAVSGKIKHYVVDNDNVVTPLIHNNRDIVTFTGNSRFKHRSRGYFESPMNDIPNFNIGKQATLDKHGYRDPKLDKVRFFKKQALPRSSSQPSAEPMENIASGKQVTQSSTAFGGDARRAVDGKVDGNYGHNSVTHTNFQSKPWWQVDLAKEETIRQINIYNRTDTAQDRLANFDVILLDSSGKEIE | not soluble
6 | MGSDKIHHHHHHMQASFMRMTDKRSPGKPLHPHGVLRPLVFKGRGALSNHDGRFDHLQHADIDDGWHNLDQDLAPLPTEVLIDNSRSIINWNNSPDVPFDRSINPYRGCEHGCIYCFARPTHTYLGLSAGLDFESRILVKPDAARLLRQELSKQHYRCAPIAMGTNTDPYQPLEKQHQLTRQILQVLAEFRHPVSIVTKAAMVERDIDILAPMASQGLVQVFISITTLSNQVSRTLEPRAAAPQRRLDTIRRLHQAGIPTGVMTAPVIPVLTDPELEHILAAASEAGASSAGYVLLRLPLEVAPLFEEWLQHHYPLKASHVMSIIRQSRDGKTNHTDFHARMRGNGLFAEMIRQRFRLACRKLGLNQRSMEMDTSLFRPPGKPEQLGLF | not soluble
7 | MGSDKIHHHHHHMAKLYFYYSTMNAGKSTTLLQSDYNYRERNMNTLVYTAAIDDRFGKGKVSSRIGIHRQANLFHKDTDLFTEIALHIKQQKLHCILIDEAQFLTKAQVYQLSNVVDELNIPVLCYGLRTDFQAELFEGSKYLLAWADQLEELKTICYCGRKANFVLRLNEQGKAVKDGEQIQIGGNDSYMSVCRKHYKEILYSSNE | not soluble
8 | MRIAILGGGVAGSTLAYLLSRINYEVTIFDINQHYVKPCGDIVPNIYTPPFNWKETFGIRRFSFYIDGEKIYDVEYRHTKWLVIDKWKWINDMRKSSKVIVTHDNNAKEFDYVIDSRGPYPMDREVVYTTRAIIETEEFDDEAILEFNTRYTGFYWIFPSKENEYNIGAGFLEYKNSKELLNYYLRKRFKNFEVKDIRGAPISIGSVKNKKLRIGEARGLVFPLSGEGIRPSAISAEYAFEAIHKEKDLDGFLNEKLSIIEKRIKIQKMLLDLYRYSSLNLRKTFMRIFFKNEVLIDTYLEDKMDLNGIIESLKSVRANGGIIRKFEEQERLEHHHHHH | not soluble
9 | MPTQFIRNRSAFPQGTNNDIDDFQYQNDFSSSSHQLPSTASGYSEHSSHQNFQNHSPPPGKATTDPLAGALLGLSDVITKSLISHPCGVLRRQCQVHQFAGSLHLTPVTLIPVICNSVAKQGIQTFWKGAIGSSVLWGLTNVTEIVLGDLMGLPRTFVVNGSAEKYWKHIVLKGVTFVTMTPFYISSFIETVRSESGIGGEDNKILDVLVKGVDRMRYFLTSGRDPSRRFSIIHLAIPTAGFQVGHYMLQTALYHQFFRMAKRYVNRKSPAEKTTYHDFLPQMFAQTSSMVLTDLILYPFETIVHRMYIQGTRTLIDNMDTGLSAVSMTVKYSGYFDCVRQVLETEGFWALYAGVGAVLLEYSLHQGLQQLVRACFDRGSELLRKATQGHPVVQSSQITPPISAKSSFNGPISNSFPSAGAALLSPMSTPRKHSTPPKDPTEFPTFGETVSQIGSPYQMPDRPNVFGSPPNRTRATHDSTQSLPPLQLNIRPSSGDPFSG | not soluble
10 | MINSPRVCIQVQSVYIEAQSSPDNERYVFAYTVTIRNLGRAPVQLLGRYWLITNGNGRETEVQGEGVVGVQPLIAPGEEYQYTSGAIIETPLGTMQGHYEMIDENGVPFSIDIPVFRLAVPTLIHMGHHHHHHSH | not soluble
11 | MGSDKIHHHHHHMTSLKQQLLDVKGGRNFRELGGYQTVSGKKIKMHKLIRSGHLADLLKEDQEYLRRYGLKYDIDLRTSFERNKQPDRKISGVEYFADPVFDEDLTNSTMSISDMARESQDPGWGYQRMLWAYKNMATGKNANKAYQHLFEVLLANEKDSESVLFHCTAGKDRTGFGAILILTALGVPMKTIEKDYLFTNEVIKDFVSQLLAKEKAAGADDSLLATFRDLQTVQPAYFKYLLDVINRNYGSINAYLHQQIGLSNADLLDLRTIYLEK | not soluble
12 | MSQEFVGRWKLIHSENFEEYMKEVGVGLITRKAAANLKPTLEIKVEGDLWYSNQYSTFKNTTLSFKLGQEFDETTPDGRTVKSVVNFENGKFIHIQKKIKDSDKESIITRWLEGDKLITTLESGSVVSRREYVRE | not soluble
13 | MGSDKIHHHHHHMNFDEKPYLRSIALKHQGLAEAKVTLIDGEFHDESAVRVQDCYPFTIPALAGFDSLDFDADVTFFVGENGSGKSTLLEAIAVAMGLNAEGGNKNTHFATKVSHSNLGYYLKTIKSFKKPKDSYFLRAESFYNLASYMEEDGREAYLGSYGGTSLHQQSHGESFMATLLHKFRGQGLYLMDEPEAALSPSRQLAALSAIHQLVENKSQFIIATHSPILLAYPRAKIYQFSNQGIVQITYQETEHYQITKAFLNQPEKLLASLGVG | not soluble
14 | MGSDKIHHHHHHMSKVIITCAVTGAIHTPSMSRYLPVTPEEIIEASVGAAEAGAAIIHLHARDPVTGKPDQSPDAFGRFLPQIKARTDAVLNITSGGSPYMTIEERIQPSMRFAPEVASLNMGSMNFALFPMLARFKEFKHAWEREALEASRDLIFRNTFKDIEYALAQCAANDTRFEFECYDVGHLYNLAHFVERGLVKAPFFVQTVFGILGGIGTHPEDVSHMKRTADRLFGNDYRWSVLGAGKDQLRLAGMSASMGGNVRVGLEDSLWLGRGTLAESNAAQVRQARQIIEGLGLEIASPNEAREILQLKGIEKVKF | not soluble
15 | MGFIMEFAENLVLRLMENPEERDRKAREHIYEMHERCKKIKEMWALPIRPYGFWTFERHNAQLRWDPQISQVAGRRDPYDDLLEDNYTPPSSSSSSSD | soluble
16 | GSMASAAVANYEEEIVRPVADFSPSLWGDQFLSFSIKNQVAEKYAKEIEALKEQTRNMLLATGMKLADTLNLIDTIERLGISYHFEKEIDDILDQIYNQNSNCNDLCTSALQFRLLRQHGFNISPEIFSKFQDENGKFKESLASDVLGLLNLYEASHVRTHADDILEDALAFSTIHLESAAPHLKSPLREQVTHALEQCLHKGVPRVETRFFISSIYDKEQSKNNVLLRFAKLDFNLLQMLHKQELAQVSRWWKDLDFVTTLPYARDRVVECYFWTLGVYFEPQYSQARVMLVKTISMISIVDDTFDAYGTVKELEAYTDAIQRWDINEIDRLPDYMKISYKAILDLYKDYEKELSSAGRSHIVCHAIERMKEIVRNYNVESTWFIEGYTPPVSEYLSNALATTTYYLLATTSYLGMKSATEQDFEWLSKNPKILEASVIICRVIDDTATYEVEKSRGQIATGIECCMRDYGISTKEAMAKFQNMAETAWKDINEGLLRPTPVSTEFLTPILNLARIIEVTYIHNLDGYTHPEKVLKPHIINLLVDSIKI | soluble
17 | QDSTSDLIPAPPLSKVPLQQNFQDNQFHGKWYQVGRAGNAALREDKDPQKMTAQIYELKEDKSYNVTAVRFRKKKCDYATMTFVPGSQPGEFTLGNIKSYPGLTSYLVRVVSTNYNQHAMVFFKKVSQNREYFSITLLGRTKELASELKENFIRFSKSLGLPENHIVFPVPIDQCIDGSAHHHHHH | soluble
18 | MAHDWEKVLLSPDTPAESALRVLDDSGLRLVLVVDEQRRLLGTLTDGDVRRALLRHVNFMTAAVADIMHREPRVALASASREQLRHLMEQHSLLHIPLLDHDDRVVGLETYQEVLQRPRRDNWVFLMAGGFGKRLRPLTDNCPKPMLLVGGKPMLQTILEGFIAAGFHRFYISVHYLPETIKNYFGDGSKWGVTIVYIEEDQPLGTGGALGLLPGTDDLPIIMMNGDILTRLDFNALLDFHEKHAADLTLCVREYDVQIPFGVVEGNDVTVTSIVEKPKHRFFVNAGIYVVTPQAIARVLPSMRVDMPDLIKQIIADQRNVSMFPIREYWLDIGRPEDFDVAQTSIAQLEHHHHHH | not soluble
19 | MGSDKIHHHHHHMEAVERVNLLGLDGAALSELVGQWGGKPFRARQLQRWVHQRGADSFDAMTDLARDFRAQLARDCVIEALPVNTEQRSSDGTRKWLFDVGQGNAIETVFIPEDDRGTLCISSQAGCVVNCRFCSTGHQGFNRNLRASEIIGQLWWAKRVLEAAADTARLPGGKAGEDTRVISNVVMMGMGEPLLNYDQVLPALRLMLDDNAYGLSRRRVTVSTSGVVPMMDRLSQDCPVALAVSLHAPNDALRDELVPLNKKYPLNALLAACERYLAHAPRDFITFEYCMLDGINDTDQHARELIQLARQVRCKLNLIPFNPFPASGLKRSPSARVRVFAQRLMDAGIVTTVRKTRGDDIDAACGQLAGEVRDRTRITERNATRTIPIQQVHA | not soluble
20 | MKNPRHIAVIDIGKTNAKLALVDLQNHREIAVLTRPNTVLPGPPWRHFDTDGHWDFLLAALKVLHGEHGIDAISISTHGASVVLLDAQGDLAAPVLDYEHPIPADIAQAYDAIRPPFAQTGSARLANGLNVGAQLFYQFAQDPGLRDRTRHIVGYPQYWGHRLTGEFAWDVTSIGCHTDLWEPVTGRFSSLVDRLGIAEKLAPVRHCADVLGSILPEVAAATGLSADTPVTVGIHDSNASLYPHLLTQEAPFSVVSTGTWVVAMAVGSKVPGLDPTRDTLVNVNAMGQPVPSARFMGGREHEVIQAGQPCPPTPQDVAQVLADSVMILPAVEPASGPFQGRKMRWSGPEPAPGTGPRSAALSFYLALMTSTCLALIAARGVTIVEGPFAQNREFKSMLSVATGRAVLHSQSATGTSMGASLLFSSDRTPPLPQTNVSEEDAQAYRTYAKEWHQQITLEHHHHHH | not soluble
